Results from article PMC5369232.

T1: orange carotenoid protein (OCP) of Synechocystis sp. PCC 6803 (Synechocystis sp. PCC 6803), P74102
T1 chain: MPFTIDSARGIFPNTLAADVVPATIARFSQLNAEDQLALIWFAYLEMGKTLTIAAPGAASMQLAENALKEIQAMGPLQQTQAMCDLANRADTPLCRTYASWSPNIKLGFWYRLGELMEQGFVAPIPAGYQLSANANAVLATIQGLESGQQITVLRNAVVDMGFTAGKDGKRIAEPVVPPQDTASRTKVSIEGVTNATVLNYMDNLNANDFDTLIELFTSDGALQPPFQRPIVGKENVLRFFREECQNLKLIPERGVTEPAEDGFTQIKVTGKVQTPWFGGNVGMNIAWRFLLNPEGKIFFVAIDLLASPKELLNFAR


What was measured:
[1] = target: fluorescence recovery protein (FRP, Slr1964) of Synechocystis sp. PCC 6803, His6-tagged (Synechocystis sp. PCC 6803) (UniProt P74103); assay: native MS
[2] = target: T1, orange carotenoid protein (OCP) of …; assay: native MS; settings: remark: other sources report otherwise

stoichiometry N [1] | stoichiometry N [2] | Molecule
2 |  | fluorescence recovery protein (FRP, Slr1964) of Synechocystis sp. PCC 6803, His6-tagged (from UniProt P74103 2-109) (natural protein)
 | 2 | orange carotenoid protein (OCP) of Synechocystis sp. PCC 6803, P74102 1-317 (natural protein) MPFTIDSARGIFPNTLAADVVPATIARFSQLNAEDQLALIWFAYLEMGKTLTIAAPGAASMQLAENALKEIQAMGPLQQTQAMCDLANRADTPLCRTYASWSPNIKLGFWYRLGELMEQGFVAPIPAGYQLSANANAVLATIQGLESGQQITVLRNAVVDMGFTAGKDGKRIAEPVVPPQDTASRTKVSIEGVTNATVLNYMDNLNANDFDTLIELFTSDGALQPPFQRPIVGKENVLRFFREECQNLKLIPERGVTEPAEDGFTQIKVTGKVQTPWFGGNVGMNIAWRFLLNPEGKIFFVAIDLLASPKELLNFAR
